Results published in paper PMC3545058.

Experiments:
[1] = target: GST-EhGα1 (Entamoeba histolytica); experiment: SPR
[2] = target: EhRGS-RhoGEF (Entamoeba histolytica); experiment: SPR

Row | Substance | Kd [1] [µM] | Kd [2] [µM]
1 | EhRGS-RhoGEF (natural protein) | 5.7 | –
2 | EhGα1 (natural protein) | – | 5.2
3 | EhGα1(Q189L) (natural protein) | – | 110
4 | EhRacC(Q65L) (from UniProt Q24816 1-194) (natural protein) | – | 34
